Assay results taken from paper PMC6918676.

Target: full length Trk-A with a C-terminal (GGS)5 linker and eYFP or mTurquoise (human) (UniProt P04629)
Experiment: FRET or BRET

full length Trk-A with a C-terminal (GGS)5 linker and eYFP or mTurquoise, sequence (P04629 33-796): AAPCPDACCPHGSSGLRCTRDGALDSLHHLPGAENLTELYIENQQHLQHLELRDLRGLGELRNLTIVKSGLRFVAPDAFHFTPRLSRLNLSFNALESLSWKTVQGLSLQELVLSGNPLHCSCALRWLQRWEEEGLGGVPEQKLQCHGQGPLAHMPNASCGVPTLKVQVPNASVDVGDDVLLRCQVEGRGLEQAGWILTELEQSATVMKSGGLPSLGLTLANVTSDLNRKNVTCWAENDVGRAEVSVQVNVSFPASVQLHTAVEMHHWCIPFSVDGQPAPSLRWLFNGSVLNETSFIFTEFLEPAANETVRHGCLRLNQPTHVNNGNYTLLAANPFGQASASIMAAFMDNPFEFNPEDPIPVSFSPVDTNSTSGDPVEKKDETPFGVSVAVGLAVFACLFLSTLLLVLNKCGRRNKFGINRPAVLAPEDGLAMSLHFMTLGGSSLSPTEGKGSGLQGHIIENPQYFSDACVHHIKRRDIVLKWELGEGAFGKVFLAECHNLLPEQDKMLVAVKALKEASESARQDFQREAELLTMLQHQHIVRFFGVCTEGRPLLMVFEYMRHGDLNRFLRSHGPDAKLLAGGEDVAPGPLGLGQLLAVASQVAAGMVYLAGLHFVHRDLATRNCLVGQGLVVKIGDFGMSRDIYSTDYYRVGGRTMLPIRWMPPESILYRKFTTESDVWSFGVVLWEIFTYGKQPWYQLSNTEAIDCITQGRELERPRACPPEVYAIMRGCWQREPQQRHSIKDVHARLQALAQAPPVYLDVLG

stoichiometry N: 2
Substance: full length Trk-A with a C-terminal (GGS)5 linker and eYFP or mTurquoise (from UniProt P04629 33-796) (receptor)
